Data set [1] deals with the molecule itself. Put plainly: cryo-EM of the NPR1-TGA3 complex; self-association.
In data set [2] the target is T1, Full-length Arabidopsis NPR1 with C-terminal Strep tag, expressed in E. coli (NPR1-Strep3) (Arabidopsis thaliana, UniProt P93002 1-593).
T1 construct: Full-length NPR1; Homodimer; Purified with 0.2 mM salicylic acid; also called WT NPR1; not shown: C-terminal Strep tag (Strep3) with its last Lys mutated to Arg
T1 sequence: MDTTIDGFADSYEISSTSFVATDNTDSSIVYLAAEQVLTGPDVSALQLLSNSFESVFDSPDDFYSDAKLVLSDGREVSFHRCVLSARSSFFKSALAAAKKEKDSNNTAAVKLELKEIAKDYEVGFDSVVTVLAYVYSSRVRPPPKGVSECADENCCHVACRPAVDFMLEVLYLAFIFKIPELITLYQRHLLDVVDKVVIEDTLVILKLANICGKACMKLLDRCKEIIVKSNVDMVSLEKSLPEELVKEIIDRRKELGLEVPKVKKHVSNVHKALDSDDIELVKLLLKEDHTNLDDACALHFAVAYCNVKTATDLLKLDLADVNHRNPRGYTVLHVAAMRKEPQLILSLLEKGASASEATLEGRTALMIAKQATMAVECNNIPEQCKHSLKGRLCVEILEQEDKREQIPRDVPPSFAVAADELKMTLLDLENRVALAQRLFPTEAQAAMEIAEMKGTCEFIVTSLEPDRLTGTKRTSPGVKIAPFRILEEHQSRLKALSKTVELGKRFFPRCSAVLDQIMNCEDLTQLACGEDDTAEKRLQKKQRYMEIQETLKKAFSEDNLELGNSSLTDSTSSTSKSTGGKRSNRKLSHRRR
Description: cryo-EM of BS3 cross-linked NPR1-TGA3-LS7 DNA complex. As for the experimental part:
2. NPR1 TGA3 LS7-DNA cryo-EM sample preparation. The purified NPR1-Strep3 (20 μM), TGA3-Flag-HA (48 μM) and the LS7 DNA containing a palindromic TGA-binding site (underlined in 5′-[…]-3′, 57.6 μM) were mixed and incubated at 4° C. for 30 min. The protein-DNA complex was cross-linked with 1.5 mM BS3 (Thermo Fisher Scientific) at room temperature for 30 min and quenched with 50 mM Tris (pH 8.0). The protein-DNA mixture was further purified using a Strep-Tactin column (Qiagen) and size-exclusion chromatography (Superose 6 in-crease 10/300 GL, Cytiva) in a buffer containing 25 mM HEPES (pH 7.5), 150 mM NaCl, 2 mM DTT and 0.2 mM SA.
3. Cryo-EM sample preparation and data collection. Cryo-EM grids containing the NPR1-TGA3-LS7-DNA complex were prepared using the Leica EM GP2 Automatic Plunge Freezer at 4° C. and 85% humidity. The UltrAuFoil R1.2/1.3 300-mesh grids (Quantifoil) were glow-discharged using the PELCO easiGlow Glow Discharge Cleaning System (Ted Pella). A 3 μl sample of NPR1-TGA3-LS7-DNA (˜1.3 mg/ml) was applied to the grid, incubated for 60 s in the chamber and blotted for 2.4 s with Whatman No. 1 filter paper (Whatman International) to re-move excess sample, and then plunge-frozen into liquid ethane cooled by liquid nitrogen. […]

Data set [3] deals with the molecule itself. Description: X-ray crystal structure, 1.5 A; self-association. As for the experimental part: The Arabidopsis TGA3 NID (Ala160-Thr384) was cloned into the pTrcHis vector (Thermo Fisher Scientific) as a His10-MBP fusion protein containing a PreScission protease site following MBP and a C-terminal tandem Flag-HA tag. The purification procedure was per-formed similarly to that of Arabidopsis TGA3 (Asn87-Thr384) except that the size-exclusion chromatography buffer contained 20 mM HEPES (pH 7.5), 150 mM NaCl and 1 mM TCEP. Protein crystals were grown using the sitting-drop vapor diffusion method at 20° C. Each drop contained 1 μl of the protein solution mixed with 1 μl of the reservoir solution (0.1 m sodium acetate at pH 5.0, 20% (v/v) MPD). Diffraction quality protein crystals were collected after 1 week and cryoprotected with the reservoir solution also containing 25% glycerol.

Data set [4] concerns the molecule itself. Description: hydrogen peroxide-induced oligomerization, non-reducing SDS-PAGE. The protocol: WT NPR1 BTB/BHB (Thr39-Lys262) and the npr1(C156A), npr1 (C82A) and npr1(C212V/C216A/C223L) mutants were cloned into the pTrcHis vector (Thermo Fisher Scientific) as His10-MBP fusion proteins with a PreScission protease site following MBP and a C-terminal Strep tag. The proteins were expressed and purified similarly to the NPR1 (²SBD) as described above. The NPR1 BTB/BHB WT and mutant proteins at a concentration of 25 μM were incubated with 1 mM hydrogen peroxide in a buffer containing 125 mM HEPES and 150 mM NaCl at pH 8.0 at room temperature for 45 min. The oxidized samples were incubated with 50 mM iodoacetamide for 5 min, mixed with 4× SDS loading dye and analyzed using SDS-PAGE in the absence of any reducing reagent.

The next data set addresses T2, TGA3 (Asn87-Thr384) (Arabidopsis thaliana, UniProt Q39234 Q39234:87-384).
T2 sequence: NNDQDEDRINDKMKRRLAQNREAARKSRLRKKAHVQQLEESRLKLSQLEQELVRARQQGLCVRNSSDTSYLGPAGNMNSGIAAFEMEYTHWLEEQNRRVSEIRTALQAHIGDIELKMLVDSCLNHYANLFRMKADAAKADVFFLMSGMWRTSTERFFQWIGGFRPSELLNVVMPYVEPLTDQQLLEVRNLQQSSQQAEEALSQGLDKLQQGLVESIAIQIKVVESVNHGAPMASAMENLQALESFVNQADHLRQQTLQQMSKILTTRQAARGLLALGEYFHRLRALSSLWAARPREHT
Description: EMSA. The following applies: tags: His10-MBP (PreScission site) N-terminal, C-terminal tandem Flag-HA; AT1G22070; E. coli; label: 6-FAM. As for the experimental part: The npr1(dim) mutant (L49D/F53D/V56D/V83K) was cloned into the pTrcHis vector (Thermo Fisher Scientific) as a His10-MBP fusion protein containing a PreScission protease site following MBP and a C-terminal Strep tag, and was expressed and purified similarly to the WT NPR 1 protein. Purified TGA3 (Asn87-Thr384) at a concentration of 0.6 μM and WT NPR1 or the npr1(dim) mutant at a concentration of 8 μM were used in the EMSA with the 6-fluorescein (6-FAM)-labelled oligonucleotide probes (200 nM) containing the LS5 and LS7 as-I cis-elements of the SA-responsive PRI gene promoter (LS5/LS7, 6-FAM-C-ggg[…]ggg) or DNA sequences with the two as-1 regions replaced with adenosines (LS5/LS7, 6-FAM-C-ggg[…]ggg), with the LS7 as-1 element replaced with adenosines (LS5/LS7, 6-FAM-C-ggg[…]-GAggg) or with the LS5 as-1 element replaced with adenosines (LS5/LS7, 6-FAM-C-ggg[…]ggg) as well as their complementary oligonucleotides (Integrated DNA Technologies). The uppercase bases indicate the LS5/LS7 sequence; the lowercase bases indicate overhangs outside the LS5/LS7 sequence; and bases replaced with adenosines are indicated with A's in the small capital font. Pairs of complementary DNA strands were annealed before the binding reaction. For each binding reaction, the desired protein combination was mixed with the target DNA probe together with 30 ng/μL of poly (dI-dC) (non-specific competitor, Thermo Fisher Scientific) in a binding buffer containing 20 mM HEPES (pH 8.0), 300 mM NaCl, 10% glycerol, 1 mM DTT and 0.2 mM SA. […] After electrophoresis, the gel was scanned with the Typhoon FLA 7000 imager (GE Healthcare).
For orientation: In EMSA bound probe runs differently from free probe, usually more slowly.

Data set [5] deals with the molecule itself. Description: X-ray crystal structure of NPR1(deltaSBD); tetramer in the crystal. The protocol: 5. X-ray crystallography studies of NPR1 (ΔSBD)) and the TGA3 NID. Arabidopsis NPR1 (²SBD) (Thr39-Asp410) was cloned into the pTrcHis vector (Thermo Fisher Scientific) as a His10-MBP fusion protein containing a PreScission protease site following MBP and a C-terminal Strep tag. Expression and purification of NPR1 (²SBD) was performed using similar procedures to those described above for E. coli-expressed NPR1, except that the size-exclusion chromatography buffer contained 20 mM HEPES (pH 7.5), 150 mM NaCl and 1 mM TCEP. Protein crystals were grown using the sitting-drop vapor diffusion method at 20° C. Each drop was prepared by mixing 1 μl of the protein solution at 6 mg ml-1 with 1 μl of the reservoir solution containing 0.1 M HEPES (pH 7.5), 19% PEG 3350, 0.25 m tri-sodium citrate. Diffraction-quality protein crystals were collected after 1 week and cryoprotected with the reservoir solution containing 25% glycerol.

B1: Arabidopsis TGA3 (Asn87-Thr384) with C-terminal tandem Flag-HA tag (other, Arabidopsis thaliana, UniProt Q39234 87-384, looked up)
chain: T2 sequence
notes: range 87-384; E. coli expressed; His10-MBP removed with PreScission protease; two dimers per NPR1 dimer in the full complex; also called TGA3-Flag-HA; not shown: C-terminal tandem Flag-HA tag
Regarding B1, the binding result in data set [1] and in data set [2] was “binds” each time.

B2: Arabidopsis TGA3 NID (Ala160-Thr384) with C-terminal tandem Flag-HA tag (other, Arabidopsis thaliana, UniProt Q39234 160-384, looked up)
chain: AGNMNSGIAAFEMEYTHWLEEQNRRVSEIRTALQAHIGDIELKMLVDSCLNHYANLFRMKADAAKADVFFLMSGMWRTSTERFFQWIGGFRPSELLNVVMPYVEPLTDQQLLEVRNLQQSSQQAEEALSQGLDKLQQGLVESIAIQIKVVESVNHGAPMASAMENLQALESFVNQADHLRQQTLQQMSKILTTRQAARGLLALGEYFHRLRALSSLWAARPREHT
notes: range 160-384; Crystallised as a dimer with palmitate (PDB 7TAE); not shown: C-terminal tandem Flag-HA tag
Take B2: the binding result in data set [3] is recorded as “binds”.

B3: WT NPR1 BTB/BHB (Thr39-Lys262) with C-terminal Strep tag (other)
chain: TGPDVSALQLLSNSFESVFDSPDDFYSDAKLVLSDGREVSFHRCVLSARSSFFKSALAAAKKEKDSNNTAAVKLELKEIAKDYEVGFDSVVTVLAYVYSSRVRPPPKGVSECADENCCHVACRPAVDFMLEVLYLAFIFKIPELITLYQRHLLDVVDKVVIEDTLVILKLANICGKACMKLLDRCKEIIVKSNVDMVSLEKSLPEELVKEIIDRRKELGLEVPK
notes: E. coli expressed, His10-MBP fusion with PreScission site, purified as NPR1(deltaSBD); Used in hydrogen peroxide oxidation assay; also called NPR1 BTB-BHB domain; NPR1 (residues Thr39-Lys262); not shown: C-terminal Strep tag
For B3, the binding result in data set [4] was “binds”.

B4: PR1 promoter LS5-/LS7- (both as-1 replaced) (dsDNA)
DNA 1: GGGCTAAAAAAAAAGTAAAATAGAAAAAAAAAGAGGG
DNA 2: CCCTCTTTTTTTTTCTATTTTACTTTTTTTTTAGCCC
Regarding B4, the binding result in the data set with TGA3 (Asn87-Thr384) is reported as “no binding”.

B5: Arabidopsis NPR1(deltaSBD) (Thr39-Asp410) with C-terminal Strep tag (other)
chain: TGPDVSALQLLSNSFESVFDSPDDFYSDAKLVLSDGREVSFHRCVLSARSSFFKSALAAAKKEKDSNNTAAVKLELKEIAKDYEVGFDSVVTVLAYVYSSRVRPPPKGVSECADENCCHVACRPAVDFMLEVLYLAFIFKIPELITLYQRHLLDVVDKVVIEDTLVILKLANICGKACMKLLDRCKEIIVKSNVDMVSLEKSLPEELVKEIIDRRKELGLEVPKVKKHVSNVHKALDSDDIELVKLLLKEDHTNLDDACALHFAVAYCNVKTATDLLKLDLADVNHRNPRGYTVLHVAAMRKEPQLILSLLEKGASASEATLEGRTALMIAKQATMAVECNNIPEQCKHSLKGRLCVEILEQEDKREQIPRD
notes: E. coli expressed, His10-MBP removed; Crystal structure PDB 7MK3; two dimers stack to a tetramer in the crystal; also called NPR1 (ASBD); NPR1 (^2SBD); not shown: C-terminal Strep tag
For the molecule B5, the binding result in data set [5] is reported as “binds”.

These data come from US20240368617A1, “NPR1 VARIANT TO ENHANCE PLANT RESISTANCE TO BIOTIC AND ABIOTIC STRESSES AND METHOD THEREOF” (Duke University, published 2024).
